Data from patent US20240360238A1 (MAGENTA THERAPEUTICS, published 2024).

How the values were obtained:
[1] = target: T1, purified rhesus CD117 ectodomain (rhesus, UniProt F6V858 26-524); assay: BLI, purified IgG on sensor, soluble rhesus ectodomain; apparent monovalent
T1 construct: extracellular domain; also called rhesus antigen

[2] = target: T2, purified human CD117 ectodomain (R&D Systems #332-SR) (human, UniProt P10721 26-524); assay: BLI, purified IgG on sensor, soluble ectodomain; apparent monovalent
T2 construct: extracellular domain; Bought protein; also called c-kit; purified recombinant human CD117 ectodomain
T2 sequence (P10721 26-524): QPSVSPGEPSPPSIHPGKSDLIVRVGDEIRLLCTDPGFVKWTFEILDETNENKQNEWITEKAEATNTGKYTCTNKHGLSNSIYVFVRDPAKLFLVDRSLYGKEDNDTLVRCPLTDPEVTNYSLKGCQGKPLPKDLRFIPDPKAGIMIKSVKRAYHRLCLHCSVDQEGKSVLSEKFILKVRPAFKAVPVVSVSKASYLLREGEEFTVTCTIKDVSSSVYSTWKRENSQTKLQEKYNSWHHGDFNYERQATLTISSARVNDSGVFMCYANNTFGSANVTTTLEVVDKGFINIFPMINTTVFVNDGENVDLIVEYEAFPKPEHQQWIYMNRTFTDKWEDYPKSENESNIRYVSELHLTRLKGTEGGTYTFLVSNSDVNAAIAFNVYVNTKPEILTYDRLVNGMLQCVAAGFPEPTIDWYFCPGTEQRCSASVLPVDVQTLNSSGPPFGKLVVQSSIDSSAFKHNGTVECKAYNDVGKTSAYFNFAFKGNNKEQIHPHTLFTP

Binder | Kd [1] | koff [1] | kon [1] | Kd [2] | koff [2] | kon [2]
HC-18/LC-18 (Ab18) (antibody, IgG1, V domains shown, From rat immunization/hybridoma; purified IgG in BLI; also called 018) VH: EVQLQQYGAELGKPGTSVRLSCKVSGYNIRNTYIHWVNQRPGEGLEWIGRIDPTNGNTISAEKFKTKATLTADTSSHTAYLQFSQLKSDDTAIYFCALNYEGYADYWGQGVMVTGSS VL: DIQMTQSPSFLSASVGDRVTINCKASQNINKYLNWYQQKVGEAPKRLIFKTNSLQTGIPSRFSGSGSGTDYTLTISSLQTEDVATYFCFQYNIGYTFGAGTKVELK | 53.8 nM | 0.0119 s⁻¹ | 221000 M⁻¹ s⁻¹ | 22.2 nM | 0.00491 s⁻¹ | 221000 M⁻¹ s⁻¹
HC-23/LC-23 (Ab23) (antibody, IgG1, V domains shown, From rat immunization/hybridoma; purified IgG in BLI; also called 023) VH: EVQLQQYGAELGKPGTSVRLSCKVSGYNIRNTYIHWVHQRPGEGLEWIGRIDPTNGNTISAEKFKSKATLTADTSSNTAYMQFSQLKSDDTAIYFCAMNYEGYADYWGQGVMVTVSS VL: DIQMTQSPSFLSASVGDRLTINCKASQNINKYLNWYQQKLGEAPKRLIFKTNSLQTGIPSRFSGSGSGTDYTLTISSLQPEDVATYFCFQYNIGFTFGAGTKLELK | 7.62 nM | 0.00214 s⁻¹ | 280000 M⁻¹ s⁻¹ | 1.49 nM | 0.000713 s⁻¹ | 478000 M⁻¹ s⁻¹
HC-17/LC-17 (Ab17) (antibody, IgG1, V domains shown, From rat immunization/hybridoma; purified IgG in BLI; also called 017) VH: QIQLVQSGPELRKPGESVKISCKASGYTFTDYAMYWVKQAPGKGLKWMGWINTYTGKPTYADDFKGRFVFSLEASANTANLQISNLKNEDTATYFCARARGLVDDYVMDAWGQGTSVTVSS VL: SYELIQPPSASVTLGNTVSLTCVGDELSKRYAQWYQQKPDKTIVSVIYKDSERPSGISDRFSGSSSGTTATLTIHGTLAEDEADYYCLSTYSDDNLPVFGGGTKLTVL | 0.562 nM | 0.000173 s⁻¹ | 307000 M⁻¹ s⁻¹ | 0.672 nM | 0.000306 s⁻¹ | 456000 M⁻¹ s⁻¹
HC-2/LC-2 (Ab2) (antibody, IgG1, V domains shown, Purified IgG; also called 002) VH: QVQLVQSGAAVKKPGESLKISCKGSGYRFTTYWIGWVRQMPGKGLEWMGIIYPGDSDTRYSPSFQGQVTISAGKSISTAYLQWSSLKASDTAMYYCARHGRGYNGYEGAFDIWGQGTMVTVSS VL: DIQLTQSPSSLSASVGDRVTITCRASQGIRTDLGWYQQKPGKAPKLLIYDASSLESGVPSRFSGSGSGTDFTLTISSLQPEDFATYYCQQFNSYPLTFGGGTKVEIK | – | – | – | 0.729 nM | 0.00027 s⁻¹ | 370000 M⁻¹ s⁻¹
HC-9/LC-9 (Ab9) (antibody, IgG1, V domains shown, Purified IgG; also called 009) VH: QVQLVQSGAAVKKPGESLKISCKGSGYRFTTYWIGWVRQMPGKGLEWMGIIYPGDSDTRYSPSFQGQVTISAGKSISTAYLQWSSLKASDTAMYYCARHGRGYNGYEGAFDIWGQGTMVTVSS VL: AIRMTQSPSSLSASVGDRVTITCQASQGIRNDLGWYQQKPGKAPKLLIYDASNLETGVPSRFSGSGSGTDFTFTISSLQPEDIATYYCQQFNSYPLTFGGGTKLEIK | – | – | – | 1.51 nM | 0.000427 s⁻¹ | 283000 M⁻¹ s⁻¹
HC-10/LC-10 (Ab10) (antibody, IgG1, V domains shown, Purified IgG; also called 010) VH: QVQLVQSGAAVKKPGESLKISCKGSGYRFTTYWIGWVRQMPGKGLEWMGIIYPGDSDTRYSPSFQGQVTISAGKSISTAYLQWSSLKASDTAMYYCARHGRGYNGYEGAFDIWGQGTMVTVSS VL: NIQMTQSPSSLSTSVGDRVTITCRASQGIGTSLAWYQQKPGKPPKLLIYDASSLESGVPSRLSGSGSGTDFTLTISSLQPEDFATYYCQQSNSYPITFGQGTRLEIK | – | – | – | 1.68 nM | 0.000585 s⁻¹ | 348000 M⁻¹ s⁻¹
HC-6/LC-6 (Ab6) (antibody, IgG1, V domains shown, Purified IgG; also called 006) VH: QVQLVQSGAAVKKPGESLKISCKGSGYRFTTYWIGWVRQMPGKGLEWMGIIYPGDSDTRYSPSFQGQVTISAGKSISTAYLQWSSLKASDTAMYYCARHGRGYNGYEGAFDIWGQGTMVTVSS VL: AIRMTQSPSSLSASVGDRVIIACRASQGIGGALAWYQQKPGNAPKVLVYDASTLESGVPSRFSGGGSGTDFTLTISSLQPEDFATYYCQQFNSYPLTFGGGTKLEIK | – | – | – | 3.72 nM | 0.00117 s⁻¹ | 315000 M⁻¹ s⁻¹
HC-11/LC-11 (Ab11) (antibody, IgG1, V domains shown, Purified IgG; also called 011) VH: QVQLVQSGAAVKKPGESLKISCKGSGYRFTTYWIGWVRQMPGKGLEWMGIIYPGDSDTRYSPSFQGQVTISAGKSISTAYLQWSSLKASDTAMYYCARHGRGYNGYEGAFDIWGQGTMVTVSS VL: AIQLTQSPSSLSASVGDRVTITCRASQSIGDYLTWYQQKPGKAPKVLIYGASSLQSGVPPRFSGSGSGTDFTLTVSSLQPEDFATYYCQQLNSYPLTFGGGTKLEIK | – | – | – | 1.41 nM | 0.000474 s⁻¹ | 336000 M⁻¹ s⁻¹
HC-4/LC-4 (Ab4) (antibody, IgG1, V domains shown, Purified IgG; also called 004) VH: QVQLVQSGAAVKKPGESLKISCKGSGYRFTTYWIGWVRQMPGKGLEWMGIIYPGDSDTRYSPSFQGQVTISAGKSISTAYLQWSSLKASDTAMYYCARHGRGYNGYEGAFDIWGQGTMVTVSS VL: AIQMTQSPSSLSASVGDRVTITCRASQGIRNDLGWYQQKPGKAPKLLIYDASSLESGVPSRFSGSGSGTDFTLTISSLQPEDFATYYCQQFNSYPLTFGGGTKVDIK | – | – | – | 1.18 nM | 0.000405 s⁻¹ | 345000 M⁻¹ s⁻¹
HC-7/LC-7 (Ab7) (antibody, IgG1, V domains shown, Purified IgG; also called 007) VH: QVQLVQSGAAVKKPGESLKISCKGSGYRFTTYWIGWVRQMPGKGLEWMGIIYPGDSDTRYSPSFQGQVTISAGKSISTAYLQWSSLKASDTAMYYCARHGRGYNGYEGAFDIWGQGTMVTVSS VL: DIAMTQSPPSLSAFVGDRVTITCRASQGIISSLAWYQQKPGKAPKLLIYDASSLESGVPSRFSGSGSGTDFTLTIRSLQPEDFATYYCQQFNSYPLTFGGGTKLEIK | – | – | – | 0.99 nM | 0.000272 s⁻¹ | 275000 M⁻¹ s⁻¹
HC-16/LC-16 (Ab16) (antibody, IgG1, V domains shown, Purified IgG; also called 016) VH: QVQLVQSGAAVKKPGESLKISCKGSGYRFTTYWIGWVRQMPGKGLEWMGIIYPGDSDTRYSPSFQGQVTISAGKSISTAYLQWSSLKASDTAMYYCARHGRGYNGYEGAFDIWGQGTMVTVSS VL: AIQLTQSPSSLSASVGDRVTITCRASQGITSALAWYQEKPGKAPNLLIYDASSLESGVPSRFSGSGYGTDFTLTISSLQPEDFATYYCQQLNSYPLTFGGGTKVDIK | – | – | – | 2.93 nM | 0.000949 s⁻¹ | 324000 M⁻¹ s⁻¹
HC-5/LC-5 (Ab5) (antibody, IgG1, V domains shown, Purified IgG; also called 005) VH: QVQLVQSGAAVKKPGESLKISCKGSGYRFTTYWIGWVRQMPGKGLEWMGIIYPGDSDTRYSPSFQGQVTISAGKSISTAYLQWSSLKASDTAMYYCARHGRGYNGYEGAFDIWGQGTMVTVSS VL: NIQMTQSPSSLSASVGDRVTITCRASQAISDYLAWFQQKPGKAPKLLIYDASNLETGVPSRFSGSGSGTDFTLTISSLQPEDFATYYCQQLNSYPLTFGGGTKVEIK | – | – | – | 1.21 nM | 0.000461 s⁻¹ | 380000 M⁻¹ s⁻¹
HC-13/LC-13 (Ab13) (antibody, IgG1, V domains shown, Purified IgG; also called 013) VH: QVQLVQSGAAVKKPGESLKISCKGSGYRFTTYWIGWVRQMPGKGLEWMGIIYPGDSDTRYSPSFQGQVTISAGKSISTAYLQWSSLKASDTAMYYCARHGRGYNGYEGAFDIWGQGTMVTVSS VL: DIVMTQSPSSLSASVGDRVTITCRASQGIRNDLGWYQQKPGKAPKLLIYDASSLESGVPSRFSGSGSGTDFTLTISSLQPEDFATYYCQQFNSYPLTFGGGTKLEIK | – | – | – | 1.55 nM | 0.000488 s⁻¹ | 314000 M⁻¹ s⁻¹
HC-15/LC-15 (Ab15) (antibody, IgG1, V domains shown, Purified IgG; also called 015) VH: QVQLVQSGAAVKKPGESLKISCKGSGYRFTTYWIGWVRQMPGKGLEWMGIIYPGDSDTRYSPSFQGQVTISAGKSISTAYLQWSSLKASDTAMYYCARHGRGYNGYEGAFDIWGQGTMVTVSS VL: AIQLTQSPSSLSASVGDRVTITCRASQGIGSALAWYQQKPGIGPKLLIYDASTLESGVPARFSGSGSRTDFTLTITSLQPEDFATYYCQQFNGYPLTFGGGTKLEIK | – | – | – | 0.979 nM | 0.00026 s⁻¹ | 265000 M⁻¹ s⁻¹
HC-8/LC-8 (Ab8) (antibody, IgG1, V domains shown, Purified IgG; also called 008) VH: QVQLVQSGAAVKKPGESLKISCKGSGYRFTTYWIGWVRQMPGKGLEWMGIIYPGDSDTRYSPSFQGQVTISAGKSISTAYLQWSSLKASDTAMYYCARHGRGYNGYEGAFDIWGQGTMVTVSS VL: DIQMTQSPSSLSASVGDRVTITCRASQGISSALAWYQQKAGKAPKVLISDASSLESGVPSRFSGSGSGTDFTLSISSLQPEDFATYYCQQFNGYPLTFGGGTKVDIK | – | – | – | 0.908 nM | 0.000264 s⁻¹ | 290000 M⁻¹ s⁻¹
HC-3/LC-3 (Ab3) (antibody, IgG1, V domains shown, Purified IgG; also called 003) VH: QVQLVQSGAAVKKPGESLKISCKGSGYRFTTYWIGWVRQMPGKGLEWMGIIYPGDSDTRYSPSFQGQVTISAGKSISTAYLQWSSLKASDTAMYYCARHGRGYNGYEGAFDIWGQGTMVTVSS VL: AIRMTQSPSSLSASVGDRVTITCRASQGIRNDLAWYQQKPGKTPKLLIYDASSLESGVPSRFSGSGSGTDFTLTISSLQPEDFATYYCQQFNSYPLTFGGGTKVEIK | – | – | – | 1.02 nM | 0.000352 s⁻¹ | 346000 M⁻¹ s⁻¹
HC-14/LC-14 (Ab14) (antibody, IgG1, V domains shown, Purified IgG; also called 014) VH: QVQLVQSGAAVKKPGESLKISCKGSGYRFTTYWIGWVRQMPGKGLEWMGIIYPGDSDTRYSPSFQGQVTISAGKSISTAYLQWSSLKASDTAMYYCARHGRGYNGYEGAFDIWGQGTMVTVSS VL: DIQLTQSPSSLSASVGDRVTITCRASQGISSFLAWYQQKPGKAPKLLIYDASTLQSGVPSRFSGSASGTDFTLTISSLQPEDFATYYCQQLNGYPLTFGGGTKVEIK | – | – | – | 2.03 nM | 0.000577 s⁻¹ | 284000 M⁻¹ s⁻¹
HC-12/LC-12 (Ab12) (antibody, IgG1, V domains shown, Purified IgG; also called 012) VH: QVQLVQSGAAVKKPGESLKISCKGSGYRFTTYWIGWVRQMPGKGLEWMGIIYPGDSDTRYSPSFQGQVTISAGKSISTAYLQWSSLKASDTAMYYCARHGRGYNGYEGAFDIWGQGTMVTVSS VL: DIQLTQSPSSLSASVGDRVTITCRASQGVRSTLAWYQQKPGKAPKLLIYDASILESGVPSRFSGSGSGTDFTLTISSLQPEDFATYYCQQFNGYPLTFGQGTRLEIK | – | – | – | 0.911 nM | 0.000268 s⁻¹ | 294000 M⁻¹ s⁻¹
HC-19/LC-19 (Ab19) (antibody, IgG1, V domains shown, From rat immunization/hybridoma; purified IgG in BLI; also called 019) VH: EVQLQESGPGLVKPSQSLSLTCSVTGYSISSNYRWNWIRKFPGNKVEWMGYINSAGSTNYNPSLKSRISMTRDTSKNQFFLQVNSVTTEDTATYYCARSLRGYITDYSGFFDYWGQGVMVTVSS VL: DIRMTQSPASLSASLGETVNIECLASEDIFSDLAWYQQKPGKSPQLLIYNANSLQNGVPSRFSGSGSGTRYSLKINSLQSEDVATYFCQQYKNYPLTFGSGTKLEIK | 2.34 nM | 0.000415 s⁻¹ | 177000 M⁻¹ s⁻¹ | 2.35 nM | 0.000481 s⁻¹ | 205000 M⁻¹ s⁻¹
